The results in this text go back to paper doi:10.1101/2019.12.17.877662 (bioRxiv, 2019).

One may read the stoichiometry N as a count of units in the complex or per binding partner.

B1: TtRecF_(D57C) (natural protein, Thermus thermophilus, UniProt Q5SLM9 1-343, looked up)
chain: MRLLLFRQRNFRNLALEAYRPPPGLSALVGANAQGKTSLLLGIHLALGGEVPLGLACLVRFGEEEAWLHAEVETELGAYRLEHRLGPGGREVLLNGKRVSLRTLWELPGSVLVSPLDLEAVLGPKEERRAYLDRLIARFSRRYAALLSAYEKALRQRNALLKAGGEGLSAWDRELARYGDEIVALRRRFLRRFAPILREVHAALAAKEAGLRLEETAGEGVLRALEASRAEERERGQTLVGPHRDDLVFLLEGRPAHRFASRGEAKTLALALRLAEHRLLGEHHGEPPLLLVDEWGEELDEARRRAVLAYAQALPQAILAGLEAPPGVPVCSVVRGVVLCPGA
B2: TtRecF_(S261C) (natural protein, Thermus thermophilus, UniProt Q5SLM9 1-343, looked up)
chain: MRLLLFRQRNFRNLALEAYRPPPGLSALVGANAQGKTSLLLGIHLALGGEVPLGLADLVRFGEEEAWLHAEVETELGAYRLEHRLGPGGREVLLNGKRVSLRTLWELPGSVLVSPLDLEAVLGPKEERRAYLDRLIARFSRRYAALLSAYEKALRQRNALLKAGGEGLSAWDRELARYGDEIVALRRRFLRRFAPILREVHAALAAKEAGLRLEETAGEGVLRALEASRAEERERGQTLVGPHRDDLVFLLEGRPAHRFACRGEAKTLALALRLAEHRLLGEHHGEPPLLLVDEWGEELDEARRRAVLAYAQALPQAILAGLEAPPGVPVCSVVRGVVLCPGA

The data set “cross-linking” deals with the molecule itself. Briefly: cross-linking.
The target in a further data set is T1, TtRecR (Thermus thermophilus, UniProt Q5SHY0 1-194).
T1 sequence: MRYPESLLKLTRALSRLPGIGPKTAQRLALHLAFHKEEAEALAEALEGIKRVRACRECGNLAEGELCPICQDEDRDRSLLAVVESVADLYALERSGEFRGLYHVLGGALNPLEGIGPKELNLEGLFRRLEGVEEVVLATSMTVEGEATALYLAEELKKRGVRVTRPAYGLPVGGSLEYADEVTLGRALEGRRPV
As to the kind of experiment: EMSA. A general note: A gel shift assay detects complexes by their altered migration in electrophoresis.

A further data set deals with T2, TtRecF (Thermus thermophilus, UniProt Q5SLM9 1-343).
T2 sequence: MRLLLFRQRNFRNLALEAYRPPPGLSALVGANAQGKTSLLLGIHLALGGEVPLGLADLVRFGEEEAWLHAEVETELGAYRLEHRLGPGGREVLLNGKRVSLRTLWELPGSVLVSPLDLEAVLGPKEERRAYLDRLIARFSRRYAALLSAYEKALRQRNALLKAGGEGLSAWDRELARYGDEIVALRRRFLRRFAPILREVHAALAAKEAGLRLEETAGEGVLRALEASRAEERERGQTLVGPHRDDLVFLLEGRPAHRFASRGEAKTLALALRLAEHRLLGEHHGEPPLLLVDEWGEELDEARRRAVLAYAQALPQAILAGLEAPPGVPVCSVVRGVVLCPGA
As to the kind of experiment: EMSA.

The target of the next data set is T3, TtRecR G169C (Thermus thermophilus, UniProt Q5SHY0 1-194, G169C).
T3 sequence: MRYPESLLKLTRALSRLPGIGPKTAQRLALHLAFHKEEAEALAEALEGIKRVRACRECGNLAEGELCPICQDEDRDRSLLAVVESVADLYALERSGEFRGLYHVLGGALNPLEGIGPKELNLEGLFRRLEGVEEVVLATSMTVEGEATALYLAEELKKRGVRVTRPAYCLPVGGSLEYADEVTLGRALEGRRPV
As to the kind of experiment: EMSA.

The next data set has as its target T4, TtRecF;TtRecR (Thermus thermophilus;Thermus …, UniProt Q5SLM9;Q5SHY0 1-343;1-194, |).
T4 sequence 1: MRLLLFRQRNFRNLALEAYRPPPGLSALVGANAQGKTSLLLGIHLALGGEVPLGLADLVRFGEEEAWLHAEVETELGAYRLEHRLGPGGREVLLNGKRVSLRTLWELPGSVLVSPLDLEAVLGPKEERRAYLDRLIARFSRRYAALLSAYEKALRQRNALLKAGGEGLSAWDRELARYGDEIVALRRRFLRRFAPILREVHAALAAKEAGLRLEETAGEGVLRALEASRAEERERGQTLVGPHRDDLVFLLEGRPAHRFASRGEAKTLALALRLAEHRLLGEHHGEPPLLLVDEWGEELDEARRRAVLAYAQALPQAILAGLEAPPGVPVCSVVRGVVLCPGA
T4 sequence 2: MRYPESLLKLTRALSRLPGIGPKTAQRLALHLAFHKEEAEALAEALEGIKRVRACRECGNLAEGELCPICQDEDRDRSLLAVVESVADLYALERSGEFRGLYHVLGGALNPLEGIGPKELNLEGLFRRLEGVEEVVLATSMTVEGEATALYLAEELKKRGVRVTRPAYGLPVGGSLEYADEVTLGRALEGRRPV
Briefly: EMSA.

Another data set concerns the target T5, TtRecF;TtRecR G169C (Thermus thermophilus;Thermus …, UniProt Q5SLM9;Q5SHY0 1-343;1-194, |G169C).
T5 sequence 1: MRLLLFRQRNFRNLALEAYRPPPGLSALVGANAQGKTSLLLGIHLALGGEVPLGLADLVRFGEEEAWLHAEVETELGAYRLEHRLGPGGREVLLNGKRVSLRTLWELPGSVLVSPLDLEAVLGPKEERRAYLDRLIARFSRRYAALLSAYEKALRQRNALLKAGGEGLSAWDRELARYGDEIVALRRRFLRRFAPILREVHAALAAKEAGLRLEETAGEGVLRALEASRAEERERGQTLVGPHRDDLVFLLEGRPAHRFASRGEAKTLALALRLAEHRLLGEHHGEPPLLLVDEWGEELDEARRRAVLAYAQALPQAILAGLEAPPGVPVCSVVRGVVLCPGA
T5 sequence 2: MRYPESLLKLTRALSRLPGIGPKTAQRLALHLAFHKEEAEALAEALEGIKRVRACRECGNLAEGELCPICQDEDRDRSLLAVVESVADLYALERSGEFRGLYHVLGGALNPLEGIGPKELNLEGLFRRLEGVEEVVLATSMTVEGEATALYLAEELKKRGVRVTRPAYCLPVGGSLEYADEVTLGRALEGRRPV
As to the kind of experiment: EMSA.

The data set “crystal structure” concerns the molecule itself. As to the kind of experiment: crystal structure.
The data set “TtRecF_(D57C)” concerns the target B1. Briefly: BLI.
The target in the data set “TtRecF_(S261C)” is B2. As to the kind of experiment: BLI.
The target in data set [1] is T6, TtRecF (wild type RecF from Thermus thermophilus) (Thermus thermophilus, UniProt Q5SLM9 1-343).
T6 sequence (looked up): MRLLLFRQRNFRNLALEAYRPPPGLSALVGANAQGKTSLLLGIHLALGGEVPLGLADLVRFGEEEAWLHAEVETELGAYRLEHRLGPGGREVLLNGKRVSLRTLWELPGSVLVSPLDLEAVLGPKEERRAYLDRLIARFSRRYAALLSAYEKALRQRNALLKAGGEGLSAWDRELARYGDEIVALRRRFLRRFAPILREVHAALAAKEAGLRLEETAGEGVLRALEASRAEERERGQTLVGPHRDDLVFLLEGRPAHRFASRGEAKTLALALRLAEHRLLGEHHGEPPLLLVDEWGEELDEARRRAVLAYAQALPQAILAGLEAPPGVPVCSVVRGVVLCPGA
Briefly: native gel or EMSA.

As to B1, the “stoichiometry N” value in “cross-linking” is 2.
Same read-out and setting: as for B2, the figure is 2.

B3: FAM-dT35 (ssDNA)
DNA: TTTTTTTTTTTTTTTTTTTTTTTTTTTTTTTTTTT
For B3, the binding result with TtRecR was “no binding”; in the data set with TtRecF, “no binding”; with TtRecR G169C, “no binding”; in the data set with TtRecF;TtRecR, “binds”; in the data set with TtRecF;TtRecR G169C it was “no binding”.

B4: TtRecR (wild type RecR from Thermus thermophilus) (natural protein, UniProt Q5SHY0 1-194, looked up)
chain: MRYPESLLKLTRALSRLPGIGPKTAQRLALHLAFHKEEAEALAEALEGIKRVRACRECGNLAEGELCPICQDEDRDRSLLAVVESVADLYALERSGEFRGLYHVLGGALNPLEGIGPKELNLEGLFRRLEGVEEVVLATSMTVEGEATALYLAEELKKRGVRVTRPAYGLPVGGSLEYADEVTLGRALEGRRPV
In the case of B4, the “stoichiometry N” value in the data set “crystal structure” stood at 4. Also, the binding result (with TtRecF_(D57C); in the data set with TtRecF_(S261C); in data set [1]) was “binds” in each case.

B5: TtRecR_(G169C) (stabilized tetrameric mutant of TtRecR) (natural protein, Thermus thermophilus, UniProt Q5SHY0 1-194, looked up)
chain: MRYPESLLKLTRALSRLPGIGPKTAQRLALHLAFHKEEAEALAEALEGIKRVRACRECGNLAEGELCPICQDEDRDRSLLAVVESVADLYALERSGEFRGLYHVLGGALNPLEGIGPKELNLEGLFRRLEGVEEVVLATSMTVEGEATALYLAEELKKRGVRVTRPAYCLPVGGSLEYADEVTLGRALEGRRPV
As for B5, in “cross-linking”, the “stoichiometry N” value worked out at 4. In addition, the binding result in data set [1] is “binds”.
